According to patent EP4793288A1 (Imbiologics Corp., dated 2025):

Experiments:
[1] = target: T1, HLA-G expressed on the cell surface (human, UniProt P17693 25-338); assay: flow cytometry on JEG-3 and SCH cells naturally expressing HLA-G, anti-human IgG PE
T1 construct: whole, on cells; The cell line of each entry is named under assay or readout; also called HLA-G on JEG-3 cells; HLA-G on SCH cells

[2] = target: T1, HLA-G expressed on the cell surface; assay: cell-based or functional assay
B2M = B2M (UniProt P61769 21-119); assay: ELISA

fold HLA-G binding activity against the positive control antibody [1]: ≥ 3 fold
EC50 (nM), ADCC reporter assay on SKOV-3/HLA-G cells [2]: 0.93 nM
binding result (B2M): no binding
B1: 2F1HS6LS#38 (antibody, V domains shown)
VH: EVQLVESGGGLVQPGGSLRLSCAASGFTFSDYAMSWVRQAPGKGLEWVSRISQSGSYTYYADSVKGRFTISRDNSKNTLYLQMNSLRAEDTAVYYCAKEGTSSYRGWMDVWGQGTLVTVSS
VL: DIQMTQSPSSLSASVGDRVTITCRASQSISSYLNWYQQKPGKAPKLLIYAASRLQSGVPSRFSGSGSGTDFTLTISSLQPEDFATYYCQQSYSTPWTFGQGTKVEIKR
